According to PMC5224236 (ACS Chemical Biology, 2016):
Like-named read-outs stand apart in the source and are kept apart here.

Columns and labels:
Assay in all cases: SPR
[1] = target: T1, full-length wild-type p97/VCP (UniProt P55072 1-806)
[2] = target: T1, full-length wild-type p97/VCP; remark: listed apart in the source
[3] = target: T1, full-length wild-type p97/VCP; remark: listed apart in the source
[4] = target: full-length p97 R155H (MSP1 mutant) (UniProt P55072 1-806, R155H)
[5] = target: full-length p97 A232E (MSP1 mutant) (UniProt P55072 1-806, A232E)
Chain of full-length p97 A232E (MSP1 mutant) (P55072 whole entry A232E): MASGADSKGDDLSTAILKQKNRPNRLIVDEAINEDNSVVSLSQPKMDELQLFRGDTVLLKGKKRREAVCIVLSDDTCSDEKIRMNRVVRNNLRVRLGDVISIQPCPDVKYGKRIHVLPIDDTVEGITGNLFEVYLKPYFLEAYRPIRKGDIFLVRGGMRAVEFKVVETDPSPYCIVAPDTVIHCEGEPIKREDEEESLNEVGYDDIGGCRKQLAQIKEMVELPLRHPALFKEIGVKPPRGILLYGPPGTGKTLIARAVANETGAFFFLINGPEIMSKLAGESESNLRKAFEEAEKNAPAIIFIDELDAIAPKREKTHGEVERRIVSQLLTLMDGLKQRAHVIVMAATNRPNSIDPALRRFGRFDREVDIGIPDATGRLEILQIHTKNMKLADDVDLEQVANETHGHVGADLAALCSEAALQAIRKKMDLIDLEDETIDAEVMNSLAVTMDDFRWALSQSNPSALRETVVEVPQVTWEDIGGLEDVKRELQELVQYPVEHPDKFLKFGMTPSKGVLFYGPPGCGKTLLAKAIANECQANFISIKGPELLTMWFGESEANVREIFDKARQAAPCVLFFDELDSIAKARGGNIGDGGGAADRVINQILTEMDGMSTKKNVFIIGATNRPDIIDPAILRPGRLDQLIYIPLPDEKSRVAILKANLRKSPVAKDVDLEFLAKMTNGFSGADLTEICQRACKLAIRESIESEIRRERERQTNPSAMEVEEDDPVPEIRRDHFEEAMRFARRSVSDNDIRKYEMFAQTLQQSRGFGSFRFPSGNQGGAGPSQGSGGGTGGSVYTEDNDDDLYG

T1 sequence (P55072 whole entry): as the sequence (P55072 whole entry A232E) above, with E232A counted along it
Chain of full-length p97 R155H (MSP1 mutant) (P55072 whole entry R155H): as the sequence (P55072 whole entry A232E) above, with R155H, E232A counted along it

Binder | Kd [1] [nM] | Kd [2] [nM] | Kd [3] [nM] | KD, high-affinity site (two-site fit) [2] [nM] | KD, high-affinity site (two-site fit) [4] [nM] | KD, high-affinity site (two-site fit) [5] [nM]
p37 (natural protein, human, UniProt Q14CS0 1-331, looked up) MAEGGGPEPGEQERRSSGPRPPSARDLQLALAELYEDEVKCKSSKSNRPKATVFKSPRTPPQRFYSSEHEYSGLNIVRPSTGKIVNELFKEAREHGAVPLNEATRASGDDKSKSFTGGGYRLGSSFCKRSEYIYGENQLQDVQILLKLWSNGFSLDDGELRPYNEPTNAQFLESVKRGEIPLELQRLVHGGQVNLDMEDHQDQEYIKPRLRFKAFSGEGQKLGSLTPEIVSTPSSPEEEDKSILNAVVLIDDSVPTTKIQIRLADGSRLIQRFNSTHRILDVRNFIVQSRPEFAALDFILVTSFPNKELTDESLTLLEADILNTVLLQQLK | 19 | 372 | 46 |  |  | 
full-length human p47 (natural protein, UniProt Q9UNZ2 1-370, looked up) MAAERQEALREFVAVTGAEEDRARFFLESAGWDLQIALASFYEDGGDEDIVTISQATPSSVSRGTAPSDNRVTSFRDLIHDQDEDEEEEEGQRFYAGGSERSGQQIVGPPRKKSPNELVDDLFKGAKEHGAVAVERVTKSPGETSKPRPFAGGGYRLGAAPEEESAYVAGEKRQHSSQDVHVVLKLWKSGFSLDNGELRSYQDPSNAQFLESIRRGEVPAELRRLAHGGQVNLDMEDHRDEDFVKPKGAFKAFTGEGQKLGSTAPQVLSTSSPAQQAENEAKASSSILIDESEPTTNIQIRLADGGRLVQKFNHSHRISDIRLFIVDARPAMAATSFILMTTFPNKELADESQTLKEANLLNAVIVQRLT |  |  |  | 184 | 18 | 21
